{"source": "patent US8710032B2", "about": "“Inhibitors of the mevalonate pathway of Streptococcus pneumoniae” (Northwestern University, priority 2006, dated 2014)", "proteins": {"B1": {"name": "mevalonate kinase (Streptococcus pneumoniae TIGR4) (protein)", "chain": "MTKKVGVGQAHSKIILIGEHAVVYGYPAISLPLLEVEVTCKVVPAESPWRLYEEDTLSMAVYASLEYLNITEACIRCEIDSAIPEKRGMGSSAAISIAAIRAVFDYYQADLPHDVLEILVNRAEMIAHMNPSGLDAKTCLSDQPIRFIKNVGFTELEMDLSAYLVIADTGVYGHTREAIQVVQNKGKDALPFLHALGELTQQAEVAISQKDAEGLGQILSQAHLHLKEIGVSSPEADFLVETTLSHGALGAKMSGGGLGGCIIALVTNLTHAQELAERLEEKGAVQTWIESL"}}, "substrate": "Nc1ncnc2c1ncn2[C@@H]1O[C@H](COP(=O)(O)OP(=O)(O)OP(=O)(O)O)[C@@H](O)[C@H]1O", "experiment": "Initial substrate results of analogues with mevalonate kinase (FIG. 8)", "assay_type": "biochemical, Streptococcus pneumoniae", "details": "other: ATP", "protocol": "FIG. 8. Initial substrate results [analogue] ranged from 2.0-2.5 mM, except #6 (4.2 mM) and #8 (6.2 mM).\nA series of compounds related to compounds 4, 5, 23, and 25 can be synthesized as potential competitive or noncompetitive reversible inhibitors of MK and DPM-DC (See, e.g., FIGS. 6-7). The representative synthesis shown (Scheme 4a) is a modification of that shown in Scheme 4, and R is limited only by availability of the corresponding reagent and synthetic technique, as would be understood by those skilled in the art made aware of this invention (e.g., alkyl, vinyl, acetylenyl, aryl, heteroaryl, etc., via Grignard reaction with the corresponding magnesium bromide or chloride)."}
{"protein": "B1", "values": [{"measurement": "Km", "value": 850, "unit": "µM"}]}
